{"source": "paper PMC11704248", "about": "“Alternative splicing in the DBD linker region of p63 modulates binding to DNA and iASPP in vitro” (Cell Death & Disease, 2025)", "key": {"[1]": {"target": "iASPP CTD with N813 and Y814 mutated (UniProt Q8WUF5)", "experiment": "not stated; affinities of peptides for iASPP CTD shown in Supplementary Fig. S5B, C, E; the text does not name the method"}, "iASPP SH3 (Homo sapiens)": {"target": "iASPP SH3 (Homo sapiens) (UniProt Q8WUF5)", "conditions": "cited from earlier work"}, "[2]": {"target": "iASPP C-terminal domain (CTD) (UniProt Q8WUF5)", "experiment": "ITC; peptide titrated to the CTD or SH3 domain; VP-ITC; 25 mM HEPES pH 7.5, 150 mM NaCl, 500 µM TCEP; single-site binding model (AB hetero association)"}, "p63 DBD-TD WT": {"system": "p63 DBD-TD WT", "experiment": "ELISA", "conditions": "ELISA: DPBS, 0.1% Tween-20, 10% Superblock, RT, 1 h; DNA pull-down: 50 mM Tris pH 8.0, 150 mM NaCl, 0.1% Tween-20, 4 C, 3 h"}, "ASPP2 CTD": {"target": "T1, ASPP2 CTD (UniProt Q13625 925-1128)", "T1 chain": "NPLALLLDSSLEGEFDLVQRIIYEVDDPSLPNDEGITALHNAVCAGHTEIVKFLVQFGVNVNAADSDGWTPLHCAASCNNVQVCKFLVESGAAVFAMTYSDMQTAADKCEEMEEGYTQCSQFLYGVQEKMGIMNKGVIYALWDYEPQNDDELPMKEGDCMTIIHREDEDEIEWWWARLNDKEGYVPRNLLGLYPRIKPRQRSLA", "experiment": "ITC"}, "[3]": {"target": "T2, iASPP CTD N813A Y814A double mutant (UniProt Q8WUF5 625-828, N813A | Y814A)", "T2 construct": "iASPP C-terminal domain with N813A and Y814A; limits as for the iASPP CTD (amino acids 625-828, printed for the crystallised fusion); also called iASPP NY; N813A Y814A iASPP double mutant; source: E. coli BL21(DE3) Rosetta, purified (IMAC, TEV cleavage, reverse IMAC, ion exchange, SEC); not shown: His10, N-terminal, cleaved", "T2 sequence (looked up)": "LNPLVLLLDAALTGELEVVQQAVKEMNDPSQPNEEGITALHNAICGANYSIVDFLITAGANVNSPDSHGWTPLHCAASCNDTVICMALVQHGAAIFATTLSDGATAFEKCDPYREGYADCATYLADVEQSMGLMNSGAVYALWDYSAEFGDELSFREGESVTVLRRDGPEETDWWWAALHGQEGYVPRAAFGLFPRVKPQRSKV", "experiment": "ITC; peptide titrated to the CTD or SH3 domain; VP-ITC; 25 mM HEPES pH 7.5, 150 mM NaCl, 500 µM TCEP; single-site binding model (AB hetero association)", "conditions": "both partners purified"}, "[4]": {"target": "T3, iASPP C-terminal domain (CTD) (UniProt Q8WUF5 625-828)", "T3 construct": "iASPP C-terminal domain (four ankyrin repeats and SH3 domain); The limits 625-828 are printed for the CTD in the crystallisation fusion; no separate limits are printed for the CTD used in ITC and NMR; For NMR the same construct was 15N-labelled (M9 medium); also called iASPP CTD; source: E. coli BL21(DE3) Rosetta, purified (IMAC, TEV cleavage, reverse IMAC, ion exchange, SEC); not shown: His10, …", "T3 sequence (looked up)": "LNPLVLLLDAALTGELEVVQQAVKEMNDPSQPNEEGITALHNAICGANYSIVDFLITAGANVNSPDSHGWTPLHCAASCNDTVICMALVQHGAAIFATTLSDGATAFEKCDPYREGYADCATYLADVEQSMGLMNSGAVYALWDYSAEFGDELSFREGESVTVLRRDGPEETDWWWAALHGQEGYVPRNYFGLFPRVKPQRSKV", "experiment": "ITC; peptide titrated to the CTD or SH3 domain; VP-ITC; 25 mM HEPES pH 7.5, 150 mM NaCl, 500 µM TCEP; single-site binding model (AB hetero association)", "conditions": "both partners purified"}, "iASPP CTD [5]": {"target": "T4, iASPP CTD (UniProt Q8WUF5 625-828)", "T4 chain": "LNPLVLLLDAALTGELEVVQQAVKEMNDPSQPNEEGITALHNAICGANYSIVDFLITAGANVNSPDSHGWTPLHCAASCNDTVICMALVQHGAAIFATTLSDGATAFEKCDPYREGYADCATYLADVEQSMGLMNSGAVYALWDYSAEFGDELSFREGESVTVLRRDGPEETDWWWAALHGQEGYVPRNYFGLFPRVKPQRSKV", "experiment": "ITC"}, "[6]": {"target": "T3, iASPP C-terminal domain (CTD)", "experiment": "ITC; peptide titrated to the CTD or SH3 domain; VP-ITC; 25 mM HEPES pH 7.5, 150 mM NaCl, 500 µM TCEP; single-site binding model (AB hetero association)", "conditions": "both partners purified", "remark": "listed apart in the source"}, "iASPP CTD [7]": {"target": "iASPP CTD (UniProt Q8WUF5)", "experiment": "NMR titration; unlabelled p63 linker peptide (up to 500 µM) with 100 µM 15N-iASPP CTD; 288 K; 25 mM HEPES pH 7.0, 50 mM NaCl, 5 mM DTT; KD from CSPs of selected residues of the SH3 domain, one-site model"}, "iASPP CTD [8]": {"target": "iASPP CTD (UniProt Q8WUF5)", "experiment": "ITC; peptide or DBD titrated to ASPP CTD; VP-ITC; 25 mM HEPES pH 7.5, 150 mM NaCl, 500 µM TCEP; AB hetero association (single-site) model"}, "iASPP CTD [9]": {"target": "T5, iASPP CTD (UniProt Q8WUF5 625-828)", "T5 construct": "iASPP, C-terminal domain (CTD: ankyrin repeats and SH3 domain), amino acids 625-828; In the crystal structure this stretch stood fused behind the p63 peptide; also called iASPP CTD (amino acids 625-828); 15N-labelled iASPP CTD; source: E. coli BL21(DE3) Rosetta, purified (IMAC, TEV cleavage, reverse IMAC, ion exchange, SEC); for NMR grown in M9 minimal medium (15N or 15N,13C labelled); not …", "T5 sequence (looked up)": "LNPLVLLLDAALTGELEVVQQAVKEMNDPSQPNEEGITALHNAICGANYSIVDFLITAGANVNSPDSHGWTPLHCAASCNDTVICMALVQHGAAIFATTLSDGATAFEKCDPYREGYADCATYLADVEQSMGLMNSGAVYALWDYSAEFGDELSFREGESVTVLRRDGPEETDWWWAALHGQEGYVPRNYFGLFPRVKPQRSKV", "experiment": "not stated; affinities of peptides for iASPP CTD shown in Supplementary Fig. S5B, C, E; the text does not name the method", "conditions": "both partners purified"}}, "note": "Values joined by “and” are separate entries in the source; they are usually repeats but may differ in a detail not shown here. Identical values can stand only once.", "data": [{"molecule": "p63 linker peptide", "values": [{"measurement": "fold reduction of the affinity against wild-type iASPP CTD", "setting": "[1]", "result": 2, "unit": "fold"}]}, {"molecule": "iASPP", "values": [{"measurement": "Kd", "setting": "iASPP SH3 (Homo sapiens)", "result": 45, "unit": "µM"}]}, {"molecule": "p63 linker acK336 peptide", "values": [{"measurement": "Kd", "setting": "[2]", "result": 94.3, "unit": "µM"}]}, {"molecule": "p63 linker pT335 peptide", "values": [{"measurement": "Kd", "setting": "[2]", "result": 132, "unit": "µM"}]}, {"molecule": "p21 promoter RE 20 bp", "values": [{"measurement": "Kd", "setting": "p63 DBD-TD WT", "result": 0.115, "unit": "µM"}]}, {"molecule": "optimized p63 linker peptide (p63opt, 331-344)", "values": [{"measurement": "Kd", "setting": "[2]", "result": 1.65, "unit": "µM"}]}, {"molecule": "p63 DBD (domain or fragment, one Zn2+ bound; start from the paper's DBD constructs (123 + 39 = 162), end from the DNA_BIND feature (362 = paper 323)) SPAIPSNTDYPGPHSFDVSFQQSSTAKSATWTYSTELKKLYCQIAKTCPIQIKVMTPPPQGAVIRAMPVYKKAEHVTEVVKRCPNHELSREFNEGQIAPPSHLIRVEGNSHAQYVEDPITGRQSVLVPYEPPQVGTEFTTVLYNFMCNSSCVGGMNRRPILIIVTLETRDGQVLGRRCFEARICACPGRDRKADEDSIRKQ", "values": [{"measurement": "Kd", "setting": "ASPP2 CTD", "result": 13.6, "unit": "µM"}]}, {"molecule": "NGDGTKRPFRQNTH (p63 linker region between DBD and OD, residues 331-344; also called p63 peptide (331-344); p63 linker WT)", "note": "[p63 linker peptide (331-344)]", "values": [{"measurement": "Kd", "setting": "[3]", "result": 186, "unit": "µM"}, {"measurement": "Kd", "setting": "[4]", "result": "148 µM and 70.1 µM"}]}, {"molecule": "PPGSTKRALPNNTS (limits not given; taken as the region aligned to p63 linker peptide 331-344 (p53 R248 = p63 R279, K305 = K336))", "values": [{"measurement": "Kd", "setting": "[4]", "result": 55.2, "unit": "µM"}]}, {"molecule": "NGAASKRAFKQSPP (limits not given; taken as the region aligned to p63 331-344 (p63 K336 = p73 K327))", "note": "[p73 linker peptide]", "values": [{"measurement": "Kd", "setting": "ASPP2 CTD", "result": 92.9, "unit": "µM"}, {"measurement": "Kd", "setting": "iASPP CTD [5]", "result": 33.8, "unit": "µM"}]}, {"molecule": "PPGSTKRALPNNTS (limits not given; taken as the region aligned to p63 331-344)", "values": [{"measurement": "Kd", "setting": "ASPP2 CTD", "result": 172, "unit": "µM"}, {"measurement": "Kd", "setting": "iASPP CTD [5]", "result": 135, "unit": "µM"}]}, {"molecule": "NPGGRPITPPRNSA (peptide, UniProt P62136 313-326, looked up, also called PP1α (313-326))", "note": "[PP1α peptide (amino acids 313-326)]", "values": [{"measurement": "Kd", "setting": "[6]", "result": 0.186, "unit": "µM"}]}, {"molecule": "GDGTKRPFRQN", "note": "[p63 linker peptide]", "values": [{"measurement": "Kd", "setting": "iASPP CTD [7]", "result": "64 to 105", "unit": "µM"}, {"measurement": "Kd", "setting": "ASPP2 CTD", "result": 288, "unit": "µM"}, {"measurement": "Kd", "setting": "iASPP CTD [8]", "result": 90, "unit": "µM"}]}, {"molecule": "GDGPKRPFRQN", "values": [{"measurement": "Kd", "setting": "iASPP CTD [9]", "result": 1.7, "unit": "µM"}]}]}
